# Measurements reported in patent US20240075157A1.
# How the values were obtained:
# [1] = molecular target: cynomolgus FcγRI (cyno FcγR1) (cynomolgus); assay: BLI, His-cyno FcR1
# hFcγR2A 167H (human) [2] = molecular target: hFcγR2A 167H (human) (UniProt P12318); assay: BLI, Hu Fc2A 167H
# hFcγR2B (human) [3] = molecular target: hFcγR2B (human) (UniProt P31994); assay: BLI, Hu Fc2B
# [4] = molecular target: human FcγR1 (hFcγR1) (human) (UniProt P12314); assay: BLI, Hu Fc1
# hFcγR2A 167R (human) [5] = molecular target: hFcγR2A 167R (human) (UniProt P12318); assay: BLI, Hu Fc2A 167R
# Hu Fc3A 176F = assay: BLI, Hu Fc3A 176F
# hFcγR3A 176V (human) = hFcγR3A 176V (human) (UniProt P08637); assay: BLI, Hu Fc3A 176V
# [6] = molecular target: human FcγR1 (hFcγR1) (human) (UniProt P12314); assay: BLI, Bio-hFcR1
# hFcγR2A 167H (human) [7] = molecular target: hFcγR2A 167H (human) (UniProt P12318); assay: BLI, Bio hFcR2A 167H
# hFcγR2B (human) [8] = molecular target: hFcγR2B (human) (UniProt P31994); assay: BLI, Bio-hFcR2B
# hFcγR2A 167R (human) [9] = molecular target: hFcγR2A 167R (human) (UniProt P12318); assay: BLI, Bio-hFcR2A 167R
# [10] = molecular target: human FcγR1 (hFcγR1) (human) (UniProt P12314); assay: BLI, His-hFcR1
# [11] = molecular target: human FcγR1 (hFcγR1) (human) (UniProt P12314); assay: BLI, FcR1, 10nM IgG
# hFcγR2A 167R (human) [12] = molecular target: hFcγR2A 167R (human) (UniProt P12318); assay: BLI, FcR2A 167R, 600nM IgG
# hFcγR3B (human) [13] = molecular target: hFcγR3B (human) (UniProt O75015); assay: BLI, FcR3B, 450nM IgG
# [14] = molecular target: human FcγR1 (hFcγR1) (human) (UniProt P12314); assay: BLI, FcR1, 50nM IgG
# hFcγR2B (human) [15] = molecular target: hFcγR2B (human) (UniProt P31994); assay: BLI, FcR2B, 450nM IgG
# hFcγR2B (human) [16] = molecular target: hFcγR2B (human) (UniProt P31994); assay: BLI, FcR2B, 600nM IgG
# [17] = molecular target: human FcγR1 (hFcγR1) (human) (UniProt P12314); assay: BLI, FcR1, 25nM IgG
# hFcγR2A 167H (human) [18] = molecular target: hFcγR2A 167H (human) (UniProt P12318); assay: BLI, FcR2A 167H, 450nM IgG
# hFcγR2A 167H (human) [19] = molecular target: hFcγR2A 167H (human) (UniProt P12318); assay: BLI, FcR2A 167H, 600nM IgG
# hFcγR2A 167R (human) [20] = molecular target: hFcγR2A 167R (human) (UniProt P12318); assay: BLI, FcR2A 167R, 450nM IgG
# hFcγR3B (human) [21] = molecular target: hFcγR3B (human) (UniProt O75015); assay: BLI, FcR3B, 600nM IgG
# Sequence of hFcγR2A 167R (human) (P12318 36-218 H167R): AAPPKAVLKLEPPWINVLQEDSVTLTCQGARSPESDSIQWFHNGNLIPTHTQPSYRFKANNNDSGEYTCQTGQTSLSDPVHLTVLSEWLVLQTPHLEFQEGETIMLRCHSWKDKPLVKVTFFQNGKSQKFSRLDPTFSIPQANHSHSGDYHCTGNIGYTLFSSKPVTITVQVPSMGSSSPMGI
# Sequence of hFcγR2A 167H (human) (P12318 36-218): as the sequence (P12318 36-218 H167R) above, with R132H counted along it
# Sequence of cynomolgus FcγRI (cyno FcγR1) (cynomolgus) (A0A2K5 entry or part of it limits assumed): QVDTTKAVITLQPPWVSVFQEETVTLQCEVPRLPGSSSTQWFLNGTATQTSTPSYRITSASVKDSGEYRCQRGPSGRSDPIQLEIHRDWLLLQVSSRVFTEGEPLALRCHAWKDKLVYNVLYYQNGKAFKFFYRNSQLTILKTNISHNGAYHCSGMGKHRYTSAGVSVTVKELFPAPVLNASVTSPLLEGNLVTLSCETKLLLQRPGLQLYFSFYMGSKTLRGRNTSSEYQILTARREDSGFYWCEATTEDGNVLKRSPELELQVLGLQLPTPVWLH
# Sequence of Hu Fc3A 176F (chain, as listed by the source limits assumed): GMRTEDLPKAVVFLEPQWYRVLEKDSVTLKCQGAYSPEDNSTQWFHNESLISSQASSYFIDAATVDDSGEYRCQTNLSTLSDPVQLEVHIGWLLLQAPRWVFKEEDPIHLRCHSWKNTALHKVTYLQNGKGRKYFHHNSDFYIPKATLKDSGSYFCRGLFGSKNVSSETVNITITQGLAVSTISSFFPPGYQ
# Sequence of human FcγR1 (hFcγR1) (human) (P12314 16-288 limits assumed): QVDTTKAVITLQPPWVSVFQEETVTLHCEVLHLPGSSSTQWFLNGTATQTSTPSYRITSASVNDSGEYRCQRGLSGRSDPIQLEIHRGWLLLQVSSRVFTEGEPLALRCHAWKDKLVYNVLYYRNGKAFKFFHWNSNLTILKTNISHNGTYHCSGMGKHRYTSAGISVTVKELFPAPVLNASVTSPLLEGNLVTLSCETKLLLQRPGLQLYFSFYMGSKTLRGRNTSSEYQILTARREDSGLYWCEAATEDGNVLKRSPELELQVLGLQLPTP
# Sequence of hFcγR2B (human) (P31994 46-217): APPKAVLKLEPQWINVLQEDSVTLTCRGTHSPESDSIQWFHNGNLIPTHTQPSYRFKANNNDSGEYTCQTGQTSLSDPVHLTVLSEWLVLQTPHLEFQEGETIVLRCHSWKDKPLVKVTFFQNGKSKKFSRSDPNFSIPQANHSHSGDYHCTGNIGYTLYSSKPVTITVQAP
# Sequence of hFcγR3B (human) (O75015 17-200 limits assumed): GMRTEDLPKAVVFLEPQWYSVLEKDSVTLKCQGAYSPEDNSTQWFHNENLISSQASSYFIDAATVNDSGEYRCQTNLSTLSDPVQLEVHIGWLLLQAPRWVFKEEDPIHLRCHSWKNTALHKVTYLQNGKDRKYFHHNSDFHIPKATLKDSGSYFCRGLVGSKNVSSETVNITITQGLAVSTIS
# Sequence of hFcγR3A 176V (human) (P08637 17-208 F176V limits assumed): as the sequence (chain, as listed by the source limits assumed) above, with F160V counted along it
normalized binding response (hFcγR2A 167H (human) [2]),normalized binding response (hFcγR2B (human) [3]),normalized binding response [4],normalized binding response (hFcγR2A 167R (human) [5]),normalized binding response (Hu Fc3A 176F),Substance,further results
–,–,–,–,–,Ab2 D265C N297Q (antibody),Normalized Response [1]: 7 % of WT
–,–,–,–,–,Ab2 D265C N297Q H435A (antibody),Normalized Response [1]: 7 % of WT
2 % of WT,2 % of WT,40 % of WT,–,–,Ab5 (anti-CD45 antibody) D265A variant,–
–,2 % of WT,–,–,–,Ab5 (anti-CD45 antibody) D265C.N297A.H435A variant,–
4 % of WT,3 % of WT,–,2 % of WT,19 % of WT,Ab5 (anti-CD45 antibody) LALA variant,normalized binding response (hFcγR3A 176V (human)): 34 % of WT
–,1 % of WT,–,–,–,Ab5 CH2 deleted (antibody),–
3 % of WT,1 % of WT,35 % of WT,–,–,Ab5 D265A.H435A (antibody),–
–,3 % of WT,33 % of WT,–,–,Ab5 D265C.H435A (antibody),–
–,–,4 % of WT,–,1 % of WT,Ab5 D265C.LALA.P329G.H435A (antibody),–
66 % of WT,10 % of WT,1 % of WT,15 % of WT,9 % of WT,Ab5 EPLVLAdelG (antibody),normalized binding response (hFcγR3A 176V (human)): 16 % of WT
–,–,–,2 % of WT,–,Ab5 LALA.P329G (antibody),–
–,8 % of WT,–,1 % of WT,–,Ab5 LALA.P331G (antibody),–
–,–,–,–,–,Isotype WT (antibody),Normalized Response [6]: 91 % of WT; Normalized Response (hFcγR2A 167H (human) [7]): 90 % of WT; Normalized Response (hFcγR2B (human) [8]): 95 % of WT; Normalized Response (hFcγR2A 167R (human) [9]): 102 % of WT; Normalized Response [10]: 85 % of WT; Normalized Response [1]: 82 % of WT
150 % of WT,120 % of WT,121 % of WT,56 % of WT,62 % of WT,YTH24.5 (anti-CD45 rIgG2b) (antibody),–
–,–,–,–,–,"naked (un-conjugated) antibody (i.e., the isotype control) of FIGS. 1D and 1E",% Binding vs Wild Type hIgG1 [11]: 100%; % Binding vs Wild Type hIgG1 (hFcγR2A 167R (human) [12]): 100%; % Binding vs Wild Type hIgG1 (hFcγR3B (human) [13]): 100%; % Binding vs Wild Type hIgG1 [14]: 100%; % Binding vs Wild Type hIgG1 (hFcγR2B (human) [15]): 100%; % Binding vs Wild Type hIgG1 (hFcγR2B (human) [16]): 100%; % Binding vs Wild Type hIgG1 [17]: 100%; % Binding vs Wild Type hIgG1 (hFcγR2A 167H (human) [18]): 100%; % Binding vs Wild Type hIgG1 (hFcγR2A 167H (human) [19]): 100%; % Binding vs Wild Type hIgG1 (hFcγR2A 167R (human) [20]): 100%; % Binding vs Wild Type hIgG1 (hFcγR3B (human) [21]): 100%
3 % of WT,8 % of WT,–,74 % of WT,1 % of WT,rIgG2a (rat IgG2a isotype control) (antibody),–
